The target in experiment [1] is EcoKI Type I RM enzyme (E. coli (endogenous in E. coli NM1049(DE3))) (UniProt P08956).
The target in experiment [2] is L127E ArdA (Streptococcus faecalis (Tn916 conjugative transposon)). The experiment is described as follows: AUC; sedimentation equilibrium at 15 μM (monomers); 17 000, 27 000 and 35 000 r.p.m.; 20 °C; 200 mM NaCl, 20 mM Tris, 20 mM MES, 1 mM TCEP, pH 6.5; SEDPHAT; dimer to monomers.
Experiment [3] has as its target WT ORF18 ArdA (Streptococcus faecalis (Tn916 conjugative transposon)). The experiment is described as above.
Experiment [4] shares this target. Put plainly: AUC; sedimentation equilibrium at 3.0 μM and 0.6 μM (monomers); 17 000, 27 000 and 35 000 r.p.m.; 20 °C; 200 mM NaCl, 20 mM Tris, 20 mM MES, 1 mM TCEP, pH 6.5; SEDPHAT.

Among the data in publication PMC3906837 are antimodification in vivo: titre ratio of phage λv.0 recovered from E. coli NM1049(DE3) expressing the ArdA protein (WT ORF18 ArdA 122.0; vector 0.9), Kd and stoichiometry N values, retold here.

The Kd is the free concentration of one partner at which half of the binding sites on the other are occupied at equilibrium, for simple one-to-one binding. The term stoichiometry N denotes the number of molecules, sites or subunits per partner or assembly. For the substance L127E ArdA (natural protein), the antimodification in vivo: titre ratio of phage λv.0 recovered from E. coli NM1049(DE3) expressing the ArdA protein (WT ORF18 ArdA 122.0; vector 0.9) in experiment [1] was 1. In experiment [2], the equilibrium dissociation constant (Kd) is 10 µM and the stoichiometry N came to 2.
For the substance WT ORF18 ArdA (natural protein), the stoichiometry N in experiment [3] and in experiment [4] was 2 each time.
